Laboratory results from publication PMC10511116.

Target: ErbB2 (HER2), recombinant (human) (UniProt P04626)
Experiment: ELONA
Conditions: every T is Nap-dU (5-[N-(1-naphthylmethyl)carboxamide]-2'-deoxyuridine, printed P); ELONA: ErbB2-coated plate, biotin-aptamer 1 h at room temp, wash 10 mM PBS, 0.05% Tween-20, pH 7.4 (binding buffer not stated); cells: DPBS, 4.5 g/L glucose …

## ATGTTAGAGTTTGCCTGAGTGCCTCGCAAGGGCGTAACAA [ErbB2 aptamer]
  Kd: 1.37 nM
